Reference: the supplement of paper PMC10126150
± gives the standard deviation of the averaged measurements.
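Note: ATP exposure 15 min at 22 °C before imaging.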

Each sequence was assayed on ATP (assay: switch fluorescence ratio, 500 uM ATP over buffer (Cy3 cluster intensity, sum of 5 cycles each) (fold (ratio)); higher = stronger signal-on switching upon ATP binding; sequences stand for … in TCGTCGGCAGCGTCAGATGTGTATAAGAGACAGTTTTTTTTTTTTTTTTTTTTTTTTT…TC). Settings: aptamer strand: ATP DNA aptamer (quencher-CACCTGGGGGAGTATTGCGGAGGAAGG + anchor), 100 nM annealed; ATP concentration: 500 uM.
Outline: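 After annealing to 100 nM quencher-labelled ATP aptamer, Cy3-labelled switching-strand clusters on a modified Illumina MiSeq flow-cell were imaged in selection buffer. A second image followed after 15 min with 500 uM ATP at 22 °C, and five such buffer/ATP cycles were done, each separated by NaOH stripping and re-annealing. The fluorescence ratio, averaged per switch-domain sequence, is summed target-cycle over summed buffer-cycle Cy3 intensity per cluster, with clusters outside 100-1000 RFU excluded.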
Sequence GAGGGATTCG has a switch fluorescence ratio of 1.01 ± 0.014.
GAGGGATTGT was tested, and the switch fluorescence ratio was 1 ± 0.021.
GAGGGCATCA was tested, and the switch fluorescence ratio was 0.99 ± 0.015.
For GAGGGCGGAC, the switch fluorescence ratio was 1.05 ± 0.19.
GAGGGCTGGG gave a switch fluorescence ratio of 0.978 ± 0.079.
GAGGGCTTAG was tested, and the switch fluorescence ratio was 0.992 ± 0.016.
With GAGGGCTTCG the switch fluorescence ratio was 1.02 ± 0.1.
GAGGGGGACA gave a switch fluorescence ratio of 0.9779 ± 0.0081.
In the case of GAGGGGGACG, the switch fluorescence ratio is reported as 1 ± 0.14.
GAGGGGGAGA showed a switch fluorescence ratio of 0.99 ± 0.024.
Work on GAGGGGGATA yielded a switch fluorescence ratio of 1.03 ± 0.058.
GAGGGGGCCG was tested, and the switch fluorescence ratio was 0.996 ± 0.034.
GAGGGGGCCT was tested, and the switch fluorescence ratio was 0.989 ± 0.049.
With GAGGGGGGAA the switch fluorescence ratio was 1.01 ± 0.03.
Sequence GAGGGGGGCT has a switch fluorescence ratio of 1.023 ± 0.006.
GAGGGGGGTT was tested, and the switch fluorescence ratio was 1 ± 0.027.
Sequence GAGGGGGTCG has a switch fluorescence ratio of 1.02 ± 0.079.
With GAGGGGTAAT the switch fluorescence ratio was 0.986 ± 0.012.
GAGGGGTAGC showed a switch fluorescence ratio of 0.988 ± 0.016.
GAGGGTAAAT showed a switch fluorescence ratio of 1.02 ± 0.023.
For GAGGGTATTT, the switch fluorescence ratio was 0.978 ± 0.03.
Sequence GAGGGTCTGT has a switch fluorescence ratio of 0.9794 ± 0.0048.
GAGGGTGGAA was tested, and the switch fluorescence ratio was 1.04 ± 0.12.
In the case of GAGGGTGGCC, the switch fluorescence ratio is reported as 1.03 ± 0.031.
With GAGGGTGGGA the switch fluorescence ratio was 0.983 ± 0.031.
For GAGGGTGTGT, the switch fluorescence ratio was 0.979 ± 0.038.
For GAGGGTTGCG, the switch fluorescence ratio was 0.973 ± 0.011.
GAGGGTTGTG was tested, and the switch fluorescence ratio was 0.969 ± 0.031.
GAGGTAAAAT was tested, and the switch fluorescence ratio was 0.968 ± 0.016.
GAGGTAGGGG was tested, and the switch fluorescence ratio was 0.968 ± 0.021.
In the case of GAGGTCATTA, the switch fluorescence ratio is reported as 0.9895 ± 0.0023.
GAGGTCATTG gave a switch fluorescence ratio of 0.9996 ± 0.0018.
For GAGGTCTGGG, the switch fluorescence ratio was 0.978 ± 0.015.
In the case of GAGGTCTGTT, the switch fluorescence ratio is reported as 0.959 ± 0.029.
GAGGTGAACA was tested, and the switch fluorescence ratio was 1.04 ± 0.067.
GAGGTGAGGC showed a switch fluorescence ratio of 1.03 ± 0.019.
Sequence GAGGTGCATG has a switch fluorescence ratio of 0.949 ± 0.024.
Sequence GAGGTGCCAG has a switch fluorescence ratio of 0.992 ± 0.031.
For GAGGTTATGC, the switch fluorescence ratio was 0.968 ± 0.04.
GAGGTTGG gave a switch fluorescence ratio of 1.02 ± 0.017.
GAGGTTTCTT gave a switch fluorescence ratio of 1.01 ± 0.0048.
GAGGTTTGTT showed a switch fluorescence ratio of 0.979 ± 0.023.
Sequence GAGGTTTTGT has a switch fluorescence ratio of 1 ± 0.023.
Work on GAGTAAACTT yielded a switch fluorescence ratio of 1.056 ± 0.0082.
GAGTAAAGCA gave a switch fluorescence ratio of 1.058 ± 0.0031.
In the case of GAGTAAAGGG, the switch fluorescence ratio is reported as 0.9992 ± 0.0019.
Sequence GAGTAAGATC has a switch fluorescence ratio of 0.999 ± 0.048.
With GAGTAAGGGG the switch fluorescence ratio was 0.969 ± 0.025.
GAGTAATGAG showed a switch fluorescence ratio of 0.984 ± 0.068.
Sequence GAGTAATGGT has a switch fluorescence ratio of 1.04 ± 0.02.
GAGTACCTGG gave a switch fluorescence ratio of 1.01 ± 0.04.
GAGTACGTTA was tested, and the switch fluorescence ratio was 1.16 ± 0.013.
For GAGTACTTAG, the switch fluorescence ratio was 1.03 ± 0.011.
Sequence GAGTAGAAAG has a switch fluorescence ratio of 0.9989 ± 0.0061.
With GAGTAGGGTT the switch fluorescence ratio was 0.983 ± 0.018.
GAGTATGCGC was tested, and the switch fluorescence ratio was 0.996 ± 0.017.
Work on GAGTATGTGC yielded a switch fluorescence ratio of 0.9691 ± 0.0066.
In the case of GAGTATGTTC, the switch fluorescence ratio is reported as 0.95 ± 0.017.
GAGTCCACGT was tested, and the switch fluorescence ratio was 1 ± 0.034.
Sequence GAGTCCATTA has a switch fluorescence ratio of 0.981 ± 0.015.
GAGTCCATTG showed a switch fluorescence ratio of 1.02 ± 0.026.
In the case of GAGTCCGTGG, the switch fluorescence ratio is reported as 1.1 ± 0.021.
GAGTCGGCCT showed a switch fluorescence ratio of 0.975 ± 0.012.
For GAGTCTAGGA, the switch fluorescence ratio was 1.01 ± 0.039.
Sequence GAGTCTGAAA has a switch fluorescence ratio of 1.141 ± 0.006.
GAGTCTGCGT showed a switch fluorescence ratio of 1.08 ± 0.026.
Work on GAGTGAGGGA yielded a switch fluorescence ratio of 1.03 ± 0.024.
Work on GAGTGAGGTG yielded a switch fluorescence ratio of 1.01 ± 0.1.
GAGTGAGTTA was tested, and the switch fluorescence ratio was 0.977 ± 0.032.
GAGTGCAGGA gave a switch fluorescence ratio of 1.01 ± 0.033.
Work on GAGTGGAGGT yielded a switch fluorescence ratio of 0.985 ± 0.01.
Sequence GAGTGGGAGC has a switch fluorescence ratio of 0.997 ± 0.066.
GAGTGGGGAT showed a switch fluorescence ratio of 1.02 ± 0.021.
In the case of GAGTGGGTTG, the switch fluorescence ratio is reported as 0.982 ± 0.0092.
Work on GAGTGGTGTT yielded a switch fluorescence ratio of 0.983 ± 0.049.
GAGTGGTTTA was tested, and the switch fluorescence ratio was 0.9913 ± 0.0096.
Sequence GAGTGGTTTT has a switch fluorescence ratio of 0.991 ± 0.063.
Sequence GAGTGTAAGT has a switch fluorescence ratio of 0.979 ± 0.01.
GAGTGTGGGG gave a switch fluorescence ratio of 0.96 ± 0.03.
For GAGTGTTTGG, the switch fluorescence ratio was 0.949 ± 0.034.
For GAGTTAATGC, the switch fluorescence ratio was 1.01 ± 0.049.
GAGTTAATTT gave a switch fluorescence ratio of 0.989 ± 0.017.
In the case of GAGTTACAGG, the switch fluorescence ratio is reported as 1.04 ± 0.022.
In the case of GAGTTAGTGC, the switch fluorescence ratio is reported as 0.982 ± 0.039.
Sequence GAGTTAGTGG has a switch fluorescence ratio of 1.01 ± 0.041.
For GAGTTCCCGG, the switch fluorescence ratio was 1 ± 0.011.
Sequence GAGTTCGTTT has a switch fluorescence ratio of 1.02 ± 0.011.
In the case of GAGTTCTAGG, the switch fluorescence ratio is reported as 0.991 ± 0.038.
Work on GAGTTGCGCG yielded a switch fluorescence ratio of 1.01 ± 0.051.
Work on GAGTTGGGTG yielded a switch fluorescence ratio of 1.01 ± 0.032.
GAGTTTAAGA was tested, and the switch fluorescence ratio was 0.979 ± 0.024.
For GAGTTTAAGG, the switch fluorescence ratio was 0.9978 ± 0.009.
GAGTTTAGTC showed a switch fluorescence ratio of 1.01 ± 0.013.
GAGTTTGGGC gave a switch fluorescence ratio of 1.01 ± 0.039.
For GAGTTTGGTA, the switch fluorescence ratio was 0.96 ± 0.027.
GAGTTTGGTT showed a switch fluorescence ratio of 0.98 ± 0.063.
GAGTTTGTCA gave a switch fluorescence ratio of 0.9917 ± 0.0087.
For GAGTTTTGTG, the switch fluorescence ratio was 0.961 ± 0.015.
In the case of GAGTTTTTTC, the switch fluorescence ratio is reported as 0.993 ± 0.018.
GATAAAAGGA was tested, and the switch fluorescence ratio was 1.002 ± 0.0063.
GATAAAATGC was tested, and the switch fluorescence ratio was 1.02 ± 0.044.
In the case of GATAACGAGG, the switch fluorescence ratio is reported as 1.05 ± 0.02.
Work on GATACACCCG yielded a switch fluorescence ratio of 1.153 ± 0.0039.
With GATACTATGT the switch fluorescence ratio was 1.01 ± 0.0085.
With GATACTGATA the switch fluorescence ratio was 1.032 ± 0.0098.
With GATACTTGGG the switch fluorescence ratio was 0.989 ± 0.035.
In the case of GATAGAAGGA, the switch fluorescence ratio is reported as 1.02 ± 0.033.
In the case of GATAGAGGGG, the switch fluorescence ratio is reported as 0.984 ± 0.028.
In the case of GATAGCATTT, the switch fluorescence ratio is reported as 1.04 ± 0.039.
With GATAGCCCGT the switch fluorescence ratio was 0.99 ± 0.021.
GATAGCCTGT was tested, and the switch fluorescence ratio was 1.01 ± 0.027.
GATAGCGCAG was tested, and the switch fluorescence ratio was 1.01 ± 0.063.
Work on GATAGGACGC yielded a switch fluorescence ratio of 1.05 ± 0.02.
GATAGGAGCC was tested, and the switch fluorescence ratio was 0.9977 ± 0.002.
For GATAGGCAAA, the switch fluorescence ratio was 1.017 ± 0.0051.
In the case of GATAGGGGGC, the switch fluorescence ratio is reported as 1.13 ± 0.28.
Work on GATAGGGGGG yielded a switch fluorescence ratio of 1 ± 0.03.
For GATAGTGAGC, the switch fluorescence ratio was 0.983 ± 0.036.
In the case of GATAGTTAGG, the switch fluorescence ratio is reported as 1.01 ± 0.021.
Work on GATATAAACG yielded a switch fluorescence ratio of 1.02 ± 0.03.
GATATATAAT gave a switch fluorescence ratio of 1.014 ± 0.002.
GATATCATTT was tested, and the switch fluorescence ratio was 1.03 ± 0.022.
In the case of GATATCCAGC, the switch fluorescence ratio is reported as 1.02 ± 0.023.
With GATATCCCGG the switch fluorescence ratio was 0.987 ± 0.022.
Work on GATATCGATG yielded a switch fluorescence ratio of 1.029 ± 0.0089.
GATATCGCCG was tested, and the switch fluorescence ratio was 1.022 ± 0.0034.
Sequence GATATCGTCT has a switch fluorescence ratio of 1.03 ± 0.028.
With GATATGGGGA the switch fluorescence ratio was 0.994 ± 0.044.
GATATGGGGT gave a switch fluorescence ratio of 0.9828 ± 0.0085.
In the case of GATATTTGAT, the switch fluorescence ratio is reported as 0.995 ± 0.042.
Sequence GATCAATTGG has a switch fluorescence ratio of 1.02 ± 0.026.
GATCACTGTT was tested, and the switch fluorescence ratio was 0.996 ± 0.062.
For GATCATCCTT, the switch fluorescence ratio was 1.03 ± 0.0052.
GATCATCGAT showed a switch fluorescence ratio of 1.02 ± 0.013.
GATCATTAGA gave a switch fluorescence ratio of 1.05 ± 0.061.
GATCATTGAG showed a switch fluorescence ratio of 0.991 ± 0.012.
For GATCATTGTT, the switch fluorescence ratio was 1.007 ± 0.0088.
With GATCATTTTT the switch fluorescence ratio was 0.984 ± 0.021.
Work on GATCCAGCGG yielded a switch fluorescence ratio of 1.02 ± 0.025.
Sequence GATCCTAAGC has a switch fluorescence ratio of 0.99 ± 0.014.
Sequence GATCCTGGGC has a switch fluorescence ratio of 1.03 ± 0.015.
GATCGAAGTT was tested, and the switch fluorescence ratio was 0.984 ± 0.033.
GATCGAGGTC gave a switch fluorescence ratio of 1.0474 ± 0.001.
GATCGGGAGG was tested, and the switch fluorescence ratio was 0.9844 ± 0.0089.
In the case of GATCGGGGAA, the switch fluorescence ratio is reported as 1.01 ± 0.02.
In the case of GATCGGGGGT, the switch fluorescence ratio is reported as 1.01 ± 0.027.
For GATCGTATTC, the switch fluorescence ratio was 1.05 ± 0.088.
GATCTAGAGG was tested, and the switch fluorescence ratio was 0.994 ± 0.019.
GATCTCAGAG gave a switch fluorescence ratio of 0.967 ± 0.014.
Work on GATCTCCGGC yielded a switch fluorescence ratio of 1.63 ± 0.063.
GATCTGGATA showed a switch fluorescence ratio of 0.9964 ± 0.0013.
With GATCTGGTAC the switch fluorescence ratio was 1.06 ± 0.037.
GATCTTATCT showed a switch fluorescence ratio of 1.03 ± 0.022.
